According to publication PMC3167601:
Where a chain is given by its changes, count along the chain named.

Legend:
Test in all cases: fluorescence anisotropy
IRF-3 DBD wild type = target: T1, IRF-3 DBD wild type (human, UniProt Q14653 1-113)
T1 sequence: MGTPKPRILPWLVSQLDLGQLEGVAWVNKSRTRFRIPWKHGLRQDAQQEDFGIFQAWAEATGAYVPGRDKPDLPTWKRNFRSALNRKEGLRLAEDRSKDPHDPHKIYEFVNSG

IRF-3 DBD H40A = target: T2, IRF-3 DBD H40A (human, UniProt Q14653 1-113, H40A)
T2 sequence: T1 sequence with H40A

IRF-7 DBD wild type = target: T3, IRF-7 DBD wild type (mouse, UniProt P70434 1-134)
T3 sequence: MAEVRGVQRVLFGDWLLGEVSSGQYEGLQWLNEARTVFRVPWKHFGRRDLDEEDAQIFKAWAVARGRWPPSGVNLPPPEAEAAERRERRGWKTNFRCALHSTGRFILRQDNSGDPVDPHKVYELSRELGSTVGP

IRF-7 DBD H44A = target: T4, IRF-7 DBD H44A (mouse, UniProt P70434 1-134, H44A)
T4 sequence: T3 sequence with H44A

B1: PRDI 15-mer duplex (dsDNA)
DNA 1: GAGAAGTGAAAGTGG
DNA 2: CCACTTTCACTTCTC
- Kd (IRF-3 DBD wild type): 486 nM
- Kd (IRF-3 DBD H40A): 1710 nM
- Kd (IRF-7 DBD wild type): 630 nM
- Kd (IRF-7 DBD H44A): 532 nM
